From patent publication US20210347852A1 (Regeneron, published 2021)

B1: Human VEGF121 (R&D SYSTEMS Cat #4644-VS) (ligand, UniProt P15692-9 27-147, looked up)
chain: APMAEGGGQNHHEVVKFMDVYQRSYCHPIETLVDIFQEYPDEIEYIFKPSCVPLMRCGGCCNDEGLECVPTEESNITMQIMRIKPHQGQHIGEMSFLQHNKCECRPKKDRARQEKCDKPRR

Key:
[1] = target: B1; assay: cell-based or functional assay
Human VEGF165 (REGN110) [2] = target: T1, Human VEGF165 (REGN110) (human, UniProt P15692-4 27-191); assay: SPR (Biacore 3000), 25C, trap captured by REGN18, hVEGF165 injected
T1 construct: also called hVEGF165; REGN110-L9
Experimental: Equilibrium dissociation constants (KD values) for human VEGF₁₆₅ binding to various purified VEGF mini-trap constructs were determined using a real-time surface plasmon resonance biosensor using a Biacore 3000 instrument. All binding studies were performed in 10 mM HEPES, 150 mM NaCl, 3 mM EDTA, and 0.05% v/v Surfactant Tween-20; pH 7.4 (HBS-ET) running buffer at 25° C. The Biacore sensor surface was first derivatized by amine coupling with a monoclonal mouse anti-VEGFR1 antibody (REGN18) to capture VEGF mini-trap constructs. Binding studies were performed on the following human VEGF reagents: human VEGF₁₆₅. […] Dissociation of bound VEGF₁₆₅ reagent from VEGF mini-trap constructs was monitored for 60 minutes in HBS-ET running buffer. Kinetic association (ka) and dissociation (kd) rate constants were determined by fitting the real-time sensorgrams to a 1:1 binding model using Scrubber 2.0c curve fitting software. Binding dissociation equilibrium constants (KD) and dissociative half-lives (t1/2) were calculated from the kinetic rate constants as: […]

[3] = target: B1; assay: cell-based or functional assay; remark: listed apart in the source
[4] = target: T2, VEGFR1 chimeric receptors Flt1(1-7)-IL18Rα / Flt1(1-7)-IL18Rβ on HEK293/D9 reporter cells (UniProt P17948 27-758; Q13478 351-541; P17948 27-758; O95256 378-599, limits assumed); assay: cell-based or functional assay
[5] = target: T2, VEGFR1 chimeric receptors …; assay: cell-based or functional assay; remark: listed apart in the source
Human VEGF165 (REGN110) [6] = target: T1, Human VEGF165 (REGN110); assay: cell-based or functional assay
[7] = target: B1; assay: cell-based or functional assay; remark: listed apart in the source

T2 sequence (P17948 other isoform, or with tags, fused parts or gaps mutant limits assumed, chain 1 of 2): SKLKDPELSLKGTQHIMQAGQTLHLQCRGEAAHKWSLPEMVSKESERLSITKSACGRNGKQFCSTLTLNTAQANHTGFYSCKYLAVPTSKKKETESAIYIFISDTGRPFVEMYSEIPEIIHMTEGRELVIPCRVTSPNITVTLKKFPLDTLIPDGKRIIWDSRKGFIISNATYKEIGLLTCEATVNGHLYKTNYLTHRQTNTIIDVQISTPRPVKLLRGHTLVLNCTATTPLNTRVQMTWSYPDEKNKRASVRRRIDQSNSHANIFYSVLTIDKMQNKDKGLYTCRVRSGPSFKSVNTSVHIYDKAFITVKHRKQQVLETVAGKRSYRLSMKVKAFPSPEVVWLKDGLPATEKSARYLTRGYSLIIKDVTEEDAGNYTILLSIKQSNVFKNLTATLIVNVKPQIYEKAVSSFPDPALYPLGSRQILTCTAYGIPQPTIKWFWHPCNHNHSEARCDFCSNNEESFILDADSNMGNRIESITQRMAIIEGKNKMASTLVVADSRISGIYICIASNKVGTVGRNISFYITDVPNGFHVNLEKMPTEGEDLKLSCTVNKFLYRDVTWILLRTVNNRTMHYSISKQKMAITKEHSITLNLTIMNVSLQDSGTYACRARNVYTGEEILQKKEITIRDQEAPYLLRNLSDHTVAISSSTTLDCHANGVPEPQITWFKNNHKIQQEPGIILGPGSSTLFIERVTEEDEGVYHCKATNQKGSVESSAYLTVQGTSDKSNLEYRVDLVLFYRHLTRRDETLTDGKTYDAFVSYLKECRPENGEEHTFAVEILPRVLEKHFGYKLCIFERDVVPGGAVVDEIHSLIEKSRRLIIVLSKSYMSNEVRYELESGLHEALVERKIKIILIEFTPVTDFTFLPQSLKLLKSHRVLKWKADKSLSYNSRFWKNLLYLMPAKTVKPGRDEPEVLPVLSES
T2 sequence (P17948 other isoform, or with tags, fused parts or gaps mutant limits assumed, chain 2 of 2): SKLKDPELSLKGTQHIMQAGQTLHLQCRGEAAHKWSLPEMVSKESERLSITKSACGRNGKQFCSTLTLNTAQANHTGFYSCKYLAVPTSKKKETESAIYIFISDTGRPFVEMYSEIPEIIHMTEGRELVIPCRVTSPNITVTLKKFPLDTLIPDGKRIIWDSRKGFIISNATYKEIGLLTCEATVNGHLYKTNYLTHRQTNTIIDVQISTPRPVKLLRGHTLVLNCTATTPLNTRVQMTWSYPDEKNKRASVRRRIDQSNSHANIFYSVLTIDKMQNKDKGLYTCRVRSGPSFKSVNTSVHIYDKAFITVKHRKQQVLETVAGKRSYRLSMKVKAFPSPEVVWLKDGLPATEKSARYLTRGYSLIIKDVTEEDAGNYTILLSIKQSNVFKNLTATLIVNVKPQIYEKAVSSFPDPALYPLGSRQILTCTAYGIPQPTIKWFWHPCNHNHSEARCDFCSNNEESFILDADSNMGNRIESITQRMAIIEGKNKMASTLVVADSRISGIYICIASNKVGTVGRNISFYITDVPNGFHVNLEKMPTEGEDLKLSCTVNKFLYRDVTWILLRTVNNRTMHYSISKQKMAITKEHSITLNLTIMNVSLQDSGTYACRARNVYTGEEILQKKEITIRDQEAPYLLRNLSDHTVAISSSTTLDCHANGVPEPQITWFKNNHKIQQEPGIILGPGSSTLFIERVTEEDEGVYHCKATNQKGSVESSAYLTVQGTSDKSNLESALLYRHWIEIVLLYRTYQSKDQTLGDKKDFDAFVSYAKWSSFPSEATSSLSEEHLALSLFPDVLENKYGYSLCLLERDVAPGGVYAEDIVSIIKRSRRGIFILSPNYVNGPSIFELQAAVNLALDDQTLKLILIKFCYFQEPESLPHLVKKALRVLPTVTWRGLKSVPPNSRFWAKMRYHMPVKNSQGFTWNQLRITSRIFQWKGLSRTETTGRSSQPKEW

IC50, Inhibition of 20 pM VEGF121, VEGFR1 assay (luciferase) [1] [M]	2.5 nM hVEGF165 Bound (RU) (Human VEGF165 (REGN110) [2])	Kd (Human VEGF165 (REGN110) [2]) [nM]	koff (Human VEGF165 (REGN110) [2]) [s⁻¹]	kon (Human VEGF165 (REGN110) [2]) [M⁻¹ s⁻¹]	t½ (Human VEGF165 (REGN110) [2]) [h]	IC50 (read off the curve); NFkB-luciferase reporter (RLU), 293/D9/VEGFR1 cells, VEGF121 constant 40 pM [C] [3] [M]	EC50 (read off the curve); NFkB-luciferase reporter (RLU), 293/D9/VEGFR1 cells, VEGF121 titrated alone [A] [4] [nM]	EC50 of activation of HEK293/D9/Flt-IL18Rα/Flt-IL18Rβ (VEGFR1) luciferase reporter cells [5] [nM]	IC50, Inhibition of 20 pM VEGF165, VEGFR1 assay (luciferase) (Human VEGF165 (REGN110) [6]) [M]	IC50 (read off the curve); NFkB-luciferase reporter (RLU), 293/D9/VEGFR1 cells, VEGF121 constant 40 pM [A] [7] [M]	Binder
1.43e-11	6.6	0.0026	2.77e-05	1.06e+07	6.95	~1e-11					REGN10102, VEGF trap hIgG2 Fc w/2Cys (Fc fusion) SDTGRPFVEMYSEIPEIIHMTEGRELVIPCRVTSPNITVTLKKFPLDTLIPDGKRIIWDSRKGFIISNATYKEIGLLTCEATVNGHLYKTNYLTHRQTNTIIDVVLSPSHGIELSVGEKLVLNCTARTELNVGIDFNWEYPSSKHQHKKLVNRDLKTQSGSEMKKFLSTLTIDGVTRSDQGLYTCAASSGLMTKKNSTFVRVHEKVECPPCPAPPVAGPSVFLFPPKPKDTLMISRTPEVTCVVVDVSHEDPEVQFNWYVDGVEVHNAKTKPREEQFNSTFRVVSVLTVVHQDWLNGKEYKCKVSNKGLPAPIEKTISKTKGQPREPQVYTLPPSREEMTKNQVSLTCLVKGFYPSDIAVEWESNGQPENNYKTTPPMLDSDGSFFLYSKLTVDKSRWQQGNVFSCSVMHEALHNHYTQKSLSLSPGK
							~0.1	~0.03			B1
2.09e-11	9.37	0.0019	1.95e-05	1.01e+07	9.85				3.36e-11	~2e-11	REGN7483, VEGF mini-trap hIgG1 Fc (other, Enzymatically cleaved from aflibercept; also called REGN7483F; VEGF mini-trap derived from REGN3) SDTGRPFVEMYSEIPEIIHMTEGRELVIPCRVTSPNITVTLKKFPLDTLIPDGKRIIWDSRKGFIISNATYKEIGLLTCEATVNGHLYKTNYLTHRQTNTIIDVVLSPSHGIELSVGEKLVLNCTARTELNVGIDFNWEYPSSKHQHKKLVNRDLKTQSGSEMKKFLSTLTIDGVTRSDQGLYTCAASSGLMTKKNSTFVRVHEKDKTHTCPPCPAPELLG
